Results published in publication PMC6400067.

Target: phosphoenolpyruvate carboxylase (Ppc; cce_3822) (Cyanothece ATCC 51142 (endogenous in the cells))
Assay: SEC

- Rapp (Mapp / Mmono): 4.6
Substance: phosphoenolpyruvate carboxylase (Ppc; cce_3822) (enzyme)
